Reference: patent CN111196852A (SICHUAN KELUN BOTAI BIOMEDICAL CO LTD; ANYUAN MEDICINE TECH …, dated 2020)
Values belong to the binder of their own block, whether it stands above or below them.

Key:
人TIGIT = target: T1, 人TIGIT (human, UniProt Q495A1 22-141, limits assumed); assay: ELISA, human TIGIT coated, HRP goat anti-mouse IgG
T1 construct: also called 人TIGIT抗原
T1 sequence (looked up): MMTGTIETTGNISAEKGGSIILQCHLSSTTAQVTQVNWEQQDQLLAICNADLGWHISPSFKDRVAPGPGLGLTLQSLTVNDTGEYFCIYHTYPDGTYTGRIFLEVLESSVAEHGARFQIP

人TIGIT-His = target: T2, 人TIGIT-His (human, UniProt Q495A1 22-141, limits assumed); assay: BLI (ForteBio Octet QK), Human TIGIT(His tag) on Ni-NTA sensor, antibody 3.125-100 nM; order of magnitude only
T2 construct: Loaded on Ni-NTA sensors in the BLI runs; also called Human TIGIT(His tag); not shown: His tag
T2 sequence (looked up): T1 sequence (looked up)

EC50 (人TIGIT): ~0.018 nM
Kd (人TIGIT-His): ~0.001 nM
B1: 鼠单克隆抗体Mab7 (antibody, mouse IgG1, V domains shown)
VH: QVQLQQSGAELVSPGTSVKVSCKASGYAFTNYLIEWIYQRPGQGLEWIGVINPGSGGTIYNEKFKGKATLTADKSSNIAYLQLSSLTSDDSAVYFCAGSYGSSYTFDYWGQGTTLTVSS
VL: DIVMTQSHKFLSTSVGDSVSITCKASQHVSTAVVWYQQKPGQSPKLLIYSPSYRYTGVPDRFTGSGSGTDFTFTISSVQAEDLAVYYCHQHYSTPWTFGGGTKLEIKR
notes: Mouse IgG1 (Kappa), purified from hybridoma #7 on protein G; also called 杂交瘤细胞株#7

EC50 (人TIGIT): ~0.018 nM
Kd (人TIGIT-His): ~0.01 nM
B2: 鼠单克隆抗体Mab21 (antibody, mouse IgG2b, V domains shown)
VH: EVQLQQSGAELVKPGASVRLSCTASGFNIKDTYINWVKQRPEQGLEWIGRIDPANGDTKYAPKFQGKATITTDTSSNTAYLQLSSLTSEDTAVYYCPKSGDYGWYFDVWGAGTTVTVSS
VL: DIVLTQSPASLSVTPGDSVSLSCRASQSISNNLHWYQQKSHESPRLLIKYASQSISGIPSRFSGSGSGTYFTLSINSVETEDFGMYFCQQSNSWLTFGAGTKLELKR
notes: Mouse IgG2b (Kappa), purified from hybridoma #21 on protein G; also called 杂交瘤细胞株#21
